The target in assay [1] is T1, BCMA on cells (293T cells transfected with BCMA; H929, MM.1S and U266 cell lines expressing BCMA) (human, UniProt Q02223 1-184).
T1 construct: H929, MM.1S and U266 carry the native protein; also called B-cell Maturation Antigen; TNFRSF17
T1 sequence: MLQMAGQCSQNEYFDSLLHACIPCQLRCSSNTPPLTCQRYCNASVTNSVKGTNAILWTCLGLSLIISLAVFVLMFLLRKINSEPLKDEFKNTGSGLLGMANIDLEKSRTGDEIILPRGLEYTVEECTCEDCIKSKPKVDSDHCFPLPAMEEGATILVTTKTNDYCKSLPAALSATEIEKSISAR
In words: flow cytometry, 293T cells transfected with BCMA. In general terms: In flow cytometry, cells or beads pass a laser one at a time.

The target of assay [2] is T2, human BCMA with a His tag (ACROBiosystems, Catalog No.: BCA-H522y) (human).
T2 construct: Bought His-tagged recombinant protein; also called huBCMA-His; Recombinant human BCMA
T2 chain: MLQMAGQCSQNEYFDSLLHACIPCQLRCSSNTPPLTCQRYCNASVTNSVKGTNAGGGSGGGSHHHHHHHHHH
In words: SPR, Biacore T200. How it is done: The binding affinity of select anti-BCMA was measured on a surface plasmon resonance (SPR) instrument, Biacore T200™, against human BCMA by a method known in the art.
In experiments performed essentially as described above, a subset of anti-human BCMA antibodies of the present disclosure bind human BCMA with a His tag (ACROBiosystems, Beijing, China, Catalog No.: BCA-H522y, SEQ ID NO:2) with affinity shown in Table 6.
(SPR reads the build-up and loss of mass on a sensor chip optically.)

In assay [3] the target is T1, BCMA on cells (293T cells transfected …). In words: flow cytometry, H929 cells.
The target of assay [4] is T3, cyno BCMA with a His tag (ACROBiosystems, Catalog No.: BCA-052H7) (cyno).
T3 construct: Bought His-tagged recombinant protein
In words: ELISA, plate-coated cyno BCMA-His. As for the experimental part:
The recombinantly expressed antibodies were used to assess binding activity to BCMA of different species origins by conventional ELISA according to the known art. Recombinant human BCMA, cyno BCMA, and mouse BCMA were coated onto ELISA plates to detect binding at serially diluted concentrations of the anti-BCMA antibody preparations.
The ability for antibodies of the present disclosure to bind human BCMA was measured with an ELISA assay. For the BCMA binding assay, a 96-well plate (Nunc) is coated with human BCMA with a His tag (ACROBiosystems, Catalog No.: AC108P1-180611F2-Bulk, SEQ ID NO:2) at 0.2 μg/well overnight at 4° C. Wells are blocked for 2 h with blocking buffer (PBS containing 3% bovine serum albumin). Wells are washed three times with PBS containing 0.1% Tween-20. Anti-human BCMA antibodies of the present disclosure or control IgG (100 μL) is then added and incubated at room temperature for 1 h. After washing, the plate is incubated with 100 μL of goat anti-mouse IgG Fcγ Fragment Specific-HRP conjugate (Jackson ImmunoResearch) at room temperature for 1 h. The plates are washed and then incubated with 100 μL of 3,3′,5,5′-tetra-methylbenzidine. The absorbance at 450 nm is read on a microplate reader. The half maximal effective concentration (EC50) is calculated using GraphPad Prism 6 software.
In experiments performed essentially as described above, anti-human BCMA antibodies of the present disclosure bind cyno BCMA with a His tag (ACROBiosystems, Beijing, China, Catalog No.: BCA-052H7, SEQ ID NO:110) with an EC50 values shown in Table 4.
(In general: An ELISA detects its analyte on a solid surface through an enzyme-linked reagent.)

Assay [5] has as its target T2, human BCMA with a His tag …. The assay is described as follows: ELISA, plate-coated human BCMA-His. The method in brief: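 Plates coated overnight at 4° C with 0.2 μg/well His-tagged human BCMA, blocked with 3% BSA in PBS. Antibodies incubated 1 h at room temperature; bound antibody detected with anti-mouse IgG Fcγ-HRP and TMB, absorbance at 450 nm. EC50 derived from serial dilution curves.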

Assay [6] deals with T1, BCMA on cells (293T cells transfected …). In words: flow cytometry, 293T cells transfected with BCMA, above parental 293T background.
Assay [7] deals with T4, mouse BCMA with a His tag (ACROBiosystems, Catalog No.: BCA-M52H3) (mouse).
T4 construct: Bought His-tagged recombinant protein
T4 chain: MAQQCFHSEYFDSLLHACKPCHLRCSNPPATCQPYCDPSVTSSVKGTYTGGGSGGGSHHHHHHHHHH
In words: ELISA, plate-coated mouse BCMA-His. The method in brief:
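Mouse BCMA-His was coated on ELISA plates, blocked with 3% BSA, and incubated 1 h at room temperature with serially diluted antibodies. Bound antibody was detected with anti-mouse IgG Fcγ-HRP and TMB, read at 450 nm. EC50 values were calculated from the binding curves.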

Assay [8] concerns the target T1, BCMA on cells (293T cells transfected …). The assay is described as follows: flow cytometry, H929 cells. As for the experimental part:
A cell line expressing BCMA, H929, was used to assess binding by anti-BCMA antibodies on the native protein on the cell surface by flow cytometry according to the known art. A subset of anti-human BCMA antibodies were assayed for binding to H929 and the fraction of cells bound the labeled antibody above background defined by control is shown in Table 8.
This is another data set of the same source.

T3 sequence (chain, as listed by the source limits assumed): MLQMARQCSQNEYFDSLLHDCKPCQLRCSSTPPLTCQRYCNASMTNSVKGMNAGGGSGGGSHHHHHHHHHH

B1: SCT-Aa02 (antibody, V domains shown)
VH: EVKLLQSGGGLVQPGGSLKLSCAASGIDFSRYWMSWVRRAPGKGLEWIGEINPDSSTINSAPSLEDKFIISRDNAKNTLYLQMSKVRSEDTALYYCASLYYDYERDYAMDYWGQGASVTVSS
VL: DIVMTQSQKFMSTSVGDRVSVTCKASQNVGTNVAWYQQKPGQSPKALIYSASYRFSGVPDRFTGSGSGTDFTLTISNVQSEDLAEYFCQQYHSYPFTFGGGTKLEIK
For the molecule B1, in assay [1], the binding result was “binds”.

B2: SCT-Aa18(h/h) (antibody, V domains shown)
VH: EVQLQQSGPELVKPGASVKISCKASGYTFISYVMHWVKQKPGQGLEWIGYIIPYNDGTKYNEKFKGKATLTSDKSSSTAYMELSSLTSEDSAVYYCAKWGNWDEGTWFPYWGQGTLVTVSA
VL: DVLMTQTPLSLPVSLGDQASFSCRSSQSIVHSDGNTYLEWYLQKPGQSPKLLIYKISNRFSGVPDRFSGSGSGTDFTLKISRVEAEDLGVYYCFQGSHVPWTFGGGTKLEIK
notes: Full IgG format, chimeric: human IgG1 heavy chain constant region, human kappa light chain constant region
A word on the Kd: it is a measure of binding affinity in units of concentration. For orientation: koff means the first-order rate constant of dissociation. A higher koff goes with a short-lived complex. In general, kon refers to the second-order rate constant of association. Low readings indicate slower complex formation, high ones faster complex formation. By EC50 is commonly meant the concentration that produces a half-maximal response. Low values mean higher potency in that assay, high ones lower potency in that assay. Consider B2, for which the dissociation constant (Kd) in assay [2] turned out to be 12.2 nM. Also, the koff in assay [2] came out at 0.0506 s⁻¹. In addition, the kon in assay [2] is 4.15e+06 M⁻¹ s⁻¹. The molecule also had a Mean fluorescent intensity in assay [3] of 875. Besides, the concentration giving a half-maximal response (EC50) in assay [4] was 0.0788 µg/mL; in assay [5], 0.00268 µg/mL; in assay [7], 0.271 µg/mL. Moreover, the entries for the “Positive (%)” value in assay [6] and in assay [8] were 76.1% and 97%, respectively.
